In assay [1] the target is T1, recombinant human Sec8-His protein (human).
T1 construct: also called recombinant human C-terminal portion of Plectin-1 protein; pET-10NC-Plec C term
T1 chain: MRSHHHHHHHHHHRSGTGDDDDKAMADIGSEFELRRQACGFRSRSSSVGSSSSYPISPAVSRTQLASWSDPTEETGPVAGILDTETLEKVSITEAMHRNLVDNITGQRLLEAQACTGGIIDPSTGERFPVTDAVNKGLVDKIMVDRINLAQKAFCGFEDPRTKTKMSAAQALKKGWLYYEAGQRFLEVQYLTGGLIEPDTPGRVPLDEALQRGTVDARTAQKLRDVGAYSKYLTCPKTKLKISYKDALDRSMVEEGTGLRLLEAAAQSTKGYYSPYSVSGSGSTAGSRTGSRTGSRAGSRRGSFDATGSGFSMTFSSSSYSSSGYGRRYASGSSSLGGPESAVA
Description: in vitro binding assay on recombinant human Sec8-His protein (FIG. 3A).

The target in assay [2] is plectin-1 on the surface of cancer cells (Homo sapiens, UniProt Q15149 1-4684). As to the kind of experiment: cell-based or functional assay.

The values that follow come from patent US20190119397A1 (ZIELBIO, published 2019).

Chain of plectin-1 on the surface of cancer cells (Q15149 whole entry): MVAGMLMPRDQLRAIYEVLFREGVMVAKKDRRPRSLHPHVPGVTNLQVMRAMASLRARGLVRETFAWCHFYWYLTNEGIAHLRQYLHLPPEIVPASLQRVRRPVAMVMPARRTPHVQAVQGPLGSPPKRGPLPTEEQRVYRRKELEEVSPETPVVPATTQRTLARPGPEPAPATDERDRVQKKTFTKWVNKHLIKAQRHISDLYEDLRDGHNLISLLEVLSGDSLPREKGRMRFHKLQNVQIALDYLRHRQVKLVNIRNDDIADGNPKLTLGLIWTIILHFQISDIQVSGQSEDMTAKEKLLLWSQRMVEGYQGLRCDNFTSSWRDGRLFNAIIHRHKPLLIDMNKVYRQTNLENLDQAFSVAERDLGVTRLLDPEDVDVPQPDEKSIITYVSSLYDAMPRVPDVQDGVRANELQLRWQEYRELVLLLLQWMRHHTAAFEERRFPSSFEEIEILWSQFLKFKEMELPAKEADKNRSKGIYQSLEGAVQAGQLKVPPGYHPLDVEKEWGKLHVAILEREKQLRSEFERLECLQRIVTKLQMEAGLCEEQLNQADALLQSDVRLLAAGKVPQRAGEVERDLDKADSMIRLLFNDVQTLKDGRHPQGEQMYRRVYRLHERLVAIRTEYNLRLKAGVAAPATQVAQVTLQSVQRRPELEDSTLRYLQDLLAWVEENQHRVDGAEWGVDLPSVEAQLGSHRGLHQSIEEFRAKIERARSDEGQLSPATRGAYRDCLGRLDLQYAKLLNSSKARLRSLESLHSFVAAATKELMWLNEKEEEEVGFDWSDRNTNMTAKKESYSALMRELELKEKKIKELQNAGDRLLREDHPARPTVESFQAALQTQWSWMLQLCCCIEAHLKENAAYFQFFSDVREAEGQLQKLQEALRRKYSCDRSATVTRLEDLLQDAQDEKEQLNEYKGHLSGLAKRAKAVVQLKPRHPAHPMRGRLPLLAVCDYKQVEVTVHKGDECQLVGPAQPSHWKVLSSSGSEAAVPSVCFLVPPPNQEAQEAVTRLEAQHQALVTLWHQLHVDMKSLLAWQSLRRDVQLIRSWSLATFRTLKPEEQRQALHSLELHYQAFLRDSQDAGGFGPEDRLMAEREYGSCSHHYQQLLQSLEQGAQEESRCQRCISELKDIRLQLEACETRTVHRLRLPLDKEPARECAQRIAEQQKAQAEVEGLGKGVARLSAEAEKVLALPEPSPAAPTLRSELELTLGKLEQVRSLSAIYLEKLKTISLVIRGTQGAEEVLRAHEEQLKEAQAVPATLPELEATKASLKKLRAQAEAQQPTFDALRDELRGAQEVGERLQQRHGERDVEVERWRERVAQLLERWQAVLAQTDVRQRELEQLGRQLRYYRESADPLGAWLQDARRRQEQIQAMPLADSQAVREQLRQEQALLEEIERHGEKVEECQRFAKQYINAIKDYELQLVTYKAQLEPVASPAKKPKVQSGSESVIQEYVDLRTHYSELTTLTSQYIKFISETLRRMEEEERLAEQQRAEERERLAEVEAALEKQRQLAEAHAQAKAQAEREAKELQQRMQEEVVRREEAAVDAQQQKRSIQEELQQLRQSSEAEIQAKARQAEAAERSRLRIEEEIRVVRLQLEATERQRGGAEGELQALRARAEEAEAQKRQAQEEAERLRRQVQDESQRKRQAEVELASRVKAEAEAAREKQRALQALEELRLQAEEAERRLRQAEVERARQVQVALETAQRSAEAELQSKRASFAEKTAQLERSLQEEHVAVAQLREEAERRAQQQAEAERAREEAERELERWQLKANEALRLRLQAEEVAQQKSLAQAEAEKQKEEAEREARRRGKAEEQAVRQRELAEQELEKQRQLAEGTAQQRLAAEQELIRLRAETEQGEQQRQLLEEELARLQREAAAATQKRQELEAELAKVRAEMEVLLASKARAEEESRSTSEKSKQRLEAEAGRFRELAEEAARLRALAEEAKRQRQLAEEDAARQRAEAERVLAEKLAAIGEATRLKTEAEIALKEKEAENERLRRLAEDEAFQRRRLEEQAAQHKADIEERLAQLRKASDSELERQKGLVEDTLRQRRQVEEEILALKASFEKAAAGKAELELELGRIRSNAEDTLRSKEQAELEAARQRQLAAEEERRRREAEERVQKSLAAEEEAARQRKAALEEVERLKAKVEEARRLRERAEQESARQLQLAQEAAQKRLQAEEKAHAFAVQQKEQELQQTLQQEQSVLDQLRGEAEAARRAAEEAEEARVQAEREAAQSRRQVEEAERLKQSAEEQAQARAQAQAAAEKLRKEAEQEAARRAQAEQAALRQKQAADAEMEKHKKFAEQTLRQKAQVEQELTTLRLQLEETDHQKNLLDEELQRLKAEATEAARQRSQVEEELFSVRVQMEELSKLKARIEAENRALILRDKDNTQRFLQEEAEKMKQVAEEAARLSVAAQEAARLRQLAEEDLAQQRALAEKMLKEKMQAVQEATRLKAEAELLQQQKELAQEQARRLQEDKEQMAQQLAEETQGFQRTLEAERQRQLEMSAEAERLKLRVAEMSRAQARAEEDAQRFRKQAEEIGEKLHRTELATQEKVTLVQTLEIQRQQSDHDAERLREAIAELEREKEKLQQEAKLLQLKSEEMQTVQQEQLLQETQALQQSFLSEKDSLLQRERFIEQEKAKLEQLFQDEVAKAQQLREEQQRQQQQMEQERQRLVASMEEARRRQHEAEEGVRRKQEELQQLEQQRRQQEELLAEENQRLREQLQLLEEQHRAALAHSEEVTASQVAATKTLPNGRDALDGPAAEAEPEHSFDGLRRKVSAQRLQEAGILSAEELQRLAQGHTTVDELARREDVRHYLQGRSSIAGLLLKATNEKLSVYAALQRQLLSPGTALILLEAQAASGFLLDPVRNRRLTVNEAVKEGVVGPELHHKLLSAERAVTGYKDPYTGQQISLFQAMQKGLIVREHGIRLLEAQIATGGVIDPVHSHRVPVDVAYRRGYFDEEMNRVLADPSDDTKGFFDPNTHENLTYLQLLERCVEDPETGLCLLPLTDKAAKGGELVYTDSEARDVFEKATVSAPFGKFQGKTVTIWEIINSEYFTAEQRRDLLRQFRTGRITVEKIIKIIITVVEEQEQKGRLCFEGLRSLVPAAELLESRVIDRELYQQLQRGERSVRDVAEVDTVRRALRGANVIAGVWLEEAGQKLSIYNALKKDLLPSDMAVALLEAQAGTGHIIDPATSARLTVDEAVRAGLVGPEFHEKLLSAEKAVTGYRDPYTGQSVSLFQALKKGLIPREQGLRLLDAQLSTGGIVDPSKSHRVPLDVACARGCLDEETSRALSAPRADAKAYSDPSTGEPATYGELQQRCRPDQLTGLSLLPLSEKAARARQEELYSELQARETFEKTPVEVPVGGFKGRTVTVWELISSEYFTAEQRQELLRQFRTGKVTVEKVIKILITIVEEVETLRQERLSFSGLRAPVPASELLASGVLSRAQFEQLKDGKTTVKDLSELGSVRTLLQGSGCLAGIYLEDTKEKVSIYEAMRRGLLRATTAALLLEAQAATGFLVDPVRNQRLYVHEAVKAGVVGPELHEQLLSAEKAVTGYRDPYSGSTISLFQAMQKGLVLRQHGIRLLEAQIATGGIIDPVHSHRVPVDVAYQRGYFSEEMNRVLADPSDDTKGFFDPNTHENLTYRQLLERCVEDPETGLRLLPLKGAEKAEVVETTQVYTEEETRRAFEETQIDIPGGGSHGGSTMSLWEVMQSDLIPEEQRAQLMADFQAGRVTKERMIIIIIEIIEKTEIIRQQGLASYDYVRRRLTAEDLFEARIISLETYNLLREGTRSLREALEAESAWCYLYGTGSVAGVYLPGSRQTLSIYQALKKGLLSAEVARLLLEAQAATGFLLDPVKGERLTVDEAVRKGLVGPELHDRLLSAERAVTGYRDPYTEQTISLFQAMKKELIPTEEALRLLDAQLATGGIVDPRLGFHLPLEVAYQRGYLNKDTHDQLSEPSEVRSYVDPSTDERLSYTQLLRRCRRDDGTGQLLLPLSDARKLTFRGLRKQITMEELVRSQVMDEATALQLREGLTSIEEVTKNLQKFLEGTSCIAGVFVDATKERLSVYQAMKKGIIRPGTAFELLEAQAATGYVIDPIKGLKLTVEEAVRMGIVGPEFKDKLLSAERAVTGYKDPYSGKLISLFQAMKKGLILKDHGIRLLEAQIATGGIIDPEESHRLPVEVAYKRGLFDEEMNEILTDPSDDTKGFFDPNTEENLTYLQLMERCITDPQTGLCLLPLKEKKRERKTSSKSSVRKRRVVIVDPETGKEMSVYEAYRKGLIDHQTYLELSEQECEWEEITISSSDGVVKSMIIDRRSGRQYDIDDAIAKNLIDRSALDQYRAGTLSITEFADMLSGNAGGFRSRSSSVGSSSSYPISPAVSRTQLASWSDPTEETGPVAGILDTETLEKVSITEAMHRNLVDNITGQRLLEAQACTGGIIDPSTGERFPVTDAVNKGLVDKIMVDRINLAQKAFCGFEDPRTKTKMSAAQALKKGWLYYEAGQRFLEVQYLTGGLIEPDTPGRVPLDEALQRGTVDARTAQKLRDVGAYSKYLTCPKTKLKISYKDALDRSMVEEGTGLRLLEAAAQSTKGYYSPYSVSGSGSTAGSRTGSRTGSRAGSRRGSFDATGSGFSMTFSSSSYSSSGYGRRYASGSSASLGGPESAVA

B1: PAb1 (antibody, mouse IgG2b, kappa, V domains shown)
VH: QIQLVQSGPELKKPGETVKISCKASGYTFTDYSMHWVKQAPGKGLKWMGWINTETGEPTYADDFKGRFAFSLETSASTAYLQINNLKNEDTATYFCAPGGFAYWGQGTLVTVSA
VL: DIVMTQAAPSVPVTPGESVSISCRSSKSLLHSNGNTYLYWFLQRPGQSPQLLIYRMSNLASGVPDRFSGSGSGTAFTLRISRVEAEDVGVYYCMQHLEYPLTFGAGTKLELKR
notes: Mouse hybridoma monoclonal antibody; also called Plectin-1 mAb; Plectin-1mAb
The Kd is the free concentration of one partner at which half of the binding sites on the other are occupied at equilibrium, for simple one-to-one binding. Take B1: the Kd in assay [1] was below 1 nM. In assay [2], the “Plectin-1mAb EC50 (nM): concentration of mAb that reduced cell viability by 50%, L3.6pl cells, 72 hours” value stood at 34 nM; the “Plectin-1mAb EC50 (nM): concentration of mAb that reduced cell viability by 50%, OVCAR8 cells, 72 hours” value was found to be 63 nM; the “Plectin-1mAb EC50 (nM): concentration of mAb that reduced cell viability by 50%, SKOV3 cells, 72 hours” value amounted to 53 nM; the “Plectin-1mAb EC50 (nM): concentration of mAb that reduced cell viability by 50%, YapC cells, 72 hours” value was found to be 43 nM.
